Reference: a protein production outcome set (Wang et al. 2014)

Test: label from the status in PepcDB records

| Sequence | protein production |
| --- | --- |
| TGEPGASDLESRNNRLQLALQLNQRTQQEQLEHLERVRGQQDLILRLARHRYSAGNSLLEAAQLITQSACEIYKVDCASIWHLEDQRLEPIIAWYRDAQEHRQPEAIDASRFPDYLDALHASRAIDAHNAGHDPRTRALAQSMRPENKAMLDASIRVDGQVIGVLCLEQSGQPRAWQSDEIAFAGELADQFAQVITNHKRRAAASALHLFQRAVEQSA | failed |
| TGQDAYGQVTEMQYVVYAFSKVETIFSDMYAFAALKTDGSVVTWGYSDYGGDSSSVAGQLTSGVKVIDSTSSAFAAIKEDGSVVTWGDSPYGGDSSSVAGKLTSGVKVIYSNSSAFAAVKQDGSVVTWGSYGGDSSSVAGQLTSGVKVIYSTDSEFGAFAAVKEDGSVVTWGNSPYGGDSSSVAGQLTSGVKVIYSTNNAFAAVKEDGSVVTWGDSGAGGDSSSVAGQLT | failed |
| TIFKDIYQLWFTQYKQTVKESTWVTTQRLFRLHILPIFSDYRIAKISIKDCQKAINQWFNAGLAKYHTLMNYVAKVLDYAINIDLISENPAKRVIVPVNKNDRS | failed |
| TISQRPYRDRVIHLLALKAYKKPELLARLQKDGVNQKDKNSLGAILQQVANLNSKDLSYTLKDYVFKELQRDWPGYSEIDRRSLESVLSRKLN | not failed |
| TLDAPLQRRMEDLLMGWRARLPERTSAAILVVEAENMAVRAYVGSVDISDVKRFGHVDMVTALRSPGSTLKPFLYGMAMDAGLIHSESLMQDVPRRYGDYRPGNFSTGFGGPVAASSALSMSLNLPAVQLLEVYGPKRFAAELRNGGVPLTLPPLAEPNLALILGGAGSRLEDLVAGYSAFARGGRSADVRLQPQDRLRERRMMSPGAAWIIRRILSGQSRPDIDPRAELVQRPQLAWKTGTSYGFRDAWAIGVGPRFLVGVWIGRPDGTPVPGQFGLASAAPLMLQVHDVLVNRDSQRGI | failed |
| TLDLPMQMAAERALADVPQQAAIVALRPSTGEVLAVAQNAPADALGPIALTGLYPPGSTFKTVTTSAALQAGAATPDTVLPCPGTENIEGRQIPNDDEFDLGAVPLHTAFARSCNTTMGRLAVGLPPDALQQAALQFGLGVDYVTPGLTTVTGNVPVADSPAARVESGIGQGQVTATPFGMAMVAASIANGSTPSPMIVQGQPGTADKTAPTVPANVTSDLRTMMRETVTGGTATALQDIPGLLGKTGTAESGNGPAHGWFVGIKDDLAFAVFIATGDSSAPAVQAAGRFLR | failed |
| TLTVNGPPIISSTQTQHALHGEKGQIKCFIRSTPPPDRIAWSWKENVLESGTSGRYTVETISTEEGVISTLTISNIVRADFQTIYNCTAWNSFGSDTEIIRLKEQGSEM | not failed |
| TNHKGEKINVAVKTCKKDCTLDNKEKFMSEAVIMKNLDHPHIVKLIGIIEEEPTWIIMELYPYGELGHYLERNKNSLKVLTLVLYSLQICKAMAYLESINCVHRDIAVRNILVASPECVKLGDFGLSRYIEDEDYYKASVTRLPIKWMSPESINFRRFTTASDVWMFAVCMWEILSFGKQPFFWLENKDVIGVLEKGDRLPKPDLCPPVLYTLMTRCWDYDPSDRPRFTELVCSLSDVYQMEKDIAMEQERNARYRTPKILEPTAFQE | failed |
| TPAVVERADADSQYEILVGGQRAGLTAYRDLGAQRVFFHTEIDEAFAGQGLASQLVQQALVDVRASGMRIVPVCPYVAKFLKRHDEFADITDPVTPEVLRWLEAQL | failed |
| TPTEGLTIGDKAPTFTICGEKQLIDLKDLRGKYVLLSFWASYDALSRMQNATLNHAVAQADNVEMVSVSFDEYKSIFNETIKKDQISTSNCFVELAGVSSDLYQTYRLKRGFKNFLLDENGVIVAKDVTVSELSS | failed |
| TPVVFLGAGNLATNLAKALYRKGFRIMQVYSRTEESARTLANEVEAEYITDLKDVSNEARLYIISLKDAAFVELLPQITDGKQHALLVHTAGSIPMNIWEGHAERYGVFYPMQTFSKQREVDFREVPFFIEAKRPEDTELLKAVAGTLSDKVYEAD | failed |
| TRGSAQMQPYFEELLLSLGPILKNITNSMVISGHTDSTPYAGSLFTNWELSSERALLARRVLERGGVKRDQVIQVTGMADQVPYITSDTAAAANRRIEALILTS | failed |
| TRNTLDIRTVAHREADGSYRIKGEKFYSTGALFAHWVSIKALDDNGKTVMAFIERGTQGLRIVDDWSGFGQRTTASGTVLLDDVSVPAKQVVP | failed |
| TSIRQGASNVICAYRRDEENMPGSRREVKNAKEEGVKFMFNLQPLGIEVDAYGKVSGVKVVKTALGEPDDAGRRRPEPVEGSEHVLPADAVIMAFGFQPHQMDWLTPFNVELDQWGRIKAPNNQEFQYQTSNEKIFAGGDAVRGSDLVVTAIDEGRKAAEGILDYLDV | failed |
| TSITPSSQDICRICHCEGDDESPLITPCHCTGSLHFVHQACLQQWIKSSDTRCCELCKYEFIMETKL | not failed |
| TSSISPAKMANGTAGTKVALRKTKQAAEKISADKISKEALLECADLLSSALTEPVPNSQLVDTGHQLLDYCSGYVDCIPQTRNKFAFREA | failed |

| Sequence | protein production |
| --- | --- |
| TSTDAAGGDSYRVGINQLVQHPALDAATTGFKEAFEEAGVDVTFDEQNANGEQGTALTISQQFASDNLDLVLAVATPAAQATAQNITDIPVLFTAVTDAVSAELVDSNEAPGGNVTGTSDIAPIEQQLELLQQLVPDAKSIGIVYASGEVNSQVQVDEVTKAAEPLGLSVNTQTVTTVNEIQQAVEALGDVDVIYVPTDNMVVSGISSLVQVAEQKQIPVIGAESGTVEGGALATLGIDYTELGRQTGEMALRILQDGEDPATMPVETATEFTYVINEDAAERQGVEIPQEILDKAERV | failed |
| TTAKPQQIQALMDEVTKQGNIVRELKAQKADKNEVAAEVAKLLDLKKQLAVAEGKPPEAPKGKKKK | not failed |
| TTKKRVFHFGKGKSEGNKTMKELLGGKGANLAEMASIGLSVPPGFTVSTEACQQYQDAGCALPAGLWAEIVDGLQWVEEYMGATLGDPQRPLLLSVRSGAAVSMPGMMDTVLNLGLNDEVAAGLAAKSGERFAYDSFRRFLDMFGNVVMDIPRSLFEEKLEHMKESKGLKNDTDLTASDLKELVGQYKEVYLSAKGEPFPSDPKKQLELAVLAVFNSWESPRAKKYRSINQITGLRGTAVNVQCMVFGNMGNTSGTGVLFTRNPNTGEKKLYGEFLVNAQGEDVVAGIRTPEDLDAMKNLMPQAYDELVENCNILESHYKEMQDIEFTVQENRLWMLQCRTGKRTGKSAVKIAVDMVNEGLVEPRSAIKMVEPGHLDQLLHPQFENPSAYKDQVIATGLPASPGAAVGQVVFTAEDAEAWHSQGKAAILVRAETSPEDVGGMHAAVGILTERGGMTSHAAVVARGWGKCCVSGCSGIRVNDAEKLVTIGGHVLREGEWLSLNGSTGEVILGKQPLSPPALSGDLGTFMAWVDDVRKLKVLANADTPDDALTARNNGAQGIGLCRTEHMFFASDERIKAVRQMIMAPTLELRQQALDRLLPYQRSDFEGIFRAMDGLPVTIRLLDPPLHEFLPEGNIEDIVSELCAETGANQEDALARIEKLSEVNPMLGFRGCRLGISYPELTEMQARAIFEAAIAMTNQGVQVFPEIMVPLVGTPQELGHQVTLIRQVAEKVFANVGKTIGYKVGTMIEIPRAALVADEIAEQAEFFSFGTNDLTQMTFGYSRDDVGKFIPVYLAQGILQHDPFEVLDQRGVGELVKFATERGRKARPNLKVGICGEHGGEPSSVAFFAKAGLDYVSCSPFRVPIARLAAAQVLV | not failed |
| TVSQLRSRITRFALAGRGMRETVTWSFISEKQALAFGGGQAQLKLVNPISADMSVMRPSLLPGLLVAAQRNADRGFPDFALFEVSNIYEDDTPDKQHRVAGGIRRGTEQFGGAGRFWNGNARAVDVFDAKADALAVLEACGLESGKVQIEVGAPDWYHPGRSGVIKLGSKIILGFFGVFHPATLEKLDISGPLCGFEIFLDRIP | failed |
| VACKPKEKPSSATSLTDDALMDTVQRRTFNYFWDAAEPNSGLARERYHMDGEYPAGGPEIVTSGGSGFGIMAILAGIDRGYVSREEGLRRMEKIVGFLEKADRFKGAYPHWWNGETGHVQPFGQKDNGGDLVETAFLMQGLLAVHQYYAEGSAEEKKLAGRIDKLWREVDWNWYRHGGQNVLYWHWSPEYGWEMNFPVHGYNECLIMYILAAASPTHGVPAAVYHEGWAQNGAIVSPHKVEGIELHLRYQGGEAGPLFWAQYSFLGLDPVGLKDEYCPSYFNEMRNLTLVNREYCIRNPKHYKGYGPDCWGLTASYSVDGYAAHGPLERDDRGVISPTAALSSIVYTPDQSLQVMHHLYEMGDKVFGPYGFYDAFSETADWYPKRYLAIDQGPIAVMIENYRTGLLWKLFMSHPDVQNGLKKLGFNVKK | not failed |
| VADTDGHYRVRAITEISSFNETLGATFSDKEFDTIGGLVINKFGRLPKNGESITIEGFNFTVTRADSRRLHLLKVERIEPGVVEDADSHDSV | not failed |
| VAKMRFIDIGANLLDEMYTGQYNDKPYHPPDLSAVLERAWAAGLEKLMITAGSLKEARAALELAKTDERLYCTVGCHPTRCKEFEDHPGGPEAYLQELLEVLKEGQALGKVVAVGECGLVATDYERLHFCDADTQKKYFEAQFRLAKESGLPMFLHLRAAADDFLDITGRHLGDFPRGGVVHSFDGTAEEAARVLAVPQLAIGINGCSLKTDDNLAVVGGLPLERIMLETDCPWCEIRPTHAGRKHVSAEALAGVTGAKDRKKFMPGCQVKSRNEPANIRQVLEVVAGVKGRTDLEAVADVIFGNTERMFFPTA | not failed |
| VAPLGLSVPSDVELPPTAKMHAIIERTASFVCRQGAQFEIMLKAKQARNSQFDFLRFDHYLNPYYKFIQKAMKEGRYTVLAENKSDEKKKSGVS | not failed |
| VATLYNDLKNKQTSVVEPKKPLPETWKNMHPCMVLNYMRPQCTFIVSGGTGTNQNNTFSMSVCVDNCEFNAEGPSKKAARYKLSALVCNKLFGTDYPQK | failed |
| VATPRGRLRVASPVLFSQLAMGRIGAGFYAAYPEVIIEVTAEDRLVDLVEEQFDVAIRINPDPDSRLVGRCFARDRLVVVAAPELPRPMPGAIRQTPAIVTSSFQPTHWKLDNGHLVLKPIPKLWFSS | failed |
| VEFSTLPAGPPAPPQDVTVQAGVTPATIRVSWRPPVLTPTGLSNGANVTGYGVYAKGQRVAEVIFPTADSTAVELVRLRSLEAKGVTVRTLSAQGESVDSAVAAVPPELLVPPTPHP | not failed |
| VEGFKVMRDGIKVASDETLLTPRFYTTDFDEMERLFSLELNKNMDMEEFEAMLNEFKLDYNQRHFVRNETFKEAAEKIQGPTRKIFIEFLERSCTAEFSGFLLYKELGRRLKATNPVVAEIFTLMSRDEARHAGFLNKAMSDFNLALDLGFLTKNRKYTFFKPKFIFYATYLSEKIGYWRYISIYRHLQRNPDNQLYPLFEYFENWCQDENRHGDFFTAVLKARPEMVNDWAAKLWSRFFCLSVYITMYLNDHQRDAFYSSLGLNTTQFNQHVIIETNKSTERIFPAVPDVENPEFFRRMDLLVKYNAQLVNIGSMNLPSPIKAIMKAPILERMVAEVFQVFIMTPKESGSYDLDANKTALVY | not failed |
| VENLKAQALCSWTAKKDNHLNFSKHDIITVLEQQENWWFGEVHGGRGWFPKSYVKIIPGSE | not failed |
| VEVIRARRLLDGQASTTGYFDNIEHCIDEEFGQCSITSNDKLLLVGSGAYPMTLIQVAKETGASVIGIDIDPQAVDLGRRIVNVLAPNEDITITDQKVSELKDIKDVTHIIFSSTIPLKYSILEELYDLTNENVVVAM | failed |
| VFHRFNEPGSRSGYSLYVPEYYDPDREWPLVMALHGGSGHGRLFLWSWLRDARARGAIVVAPTATGRTWALMGEDVDSPNLARILDEVRGHWRIDPSRLLLTGLSDGGTFCYVSGLTSDSPFTHLAPIAASFHPLLAGAADSARLRGLPIQIVHGRHDWMFPVEVARQAHEALVSAGADVSYREIADLSHSYPREANVALLDWL | failed |
